Entries after “also recorded” stand apart in the source; their conditions may differ.
Experiments:
RIP1-Tag5 tumours [1] = experiment: Short term treatment of tumour-bearing RIP1-Tag5 mice, tumour histology; format: in vivo, mouse
Experimental: Short term treatment: commencing at 26-27 weeks of age mice were treated for 2 weeks with bi-weekly intravenous (i.v.) injections of recombinant proteins in 100 μl volume at 0.2 ng (equivalent to approximately […] body weight for a 30 g mouse) or 20 ng (equivalent to approximately […] body weight for a 30 g mouse) LIGHT or LIGHT-RGR. When indicated this was followed by one adoptive transfer of TagTCR8 (CD8+) T cells. Four days later, mice were sacrificed and tumours were isolated for histology. For adoptive transfer experiments, TagTCR8 lymph node cells were activated in vitro for 3 days, with 10 U of rIL-2/ml and 25 nM Tag peptide […] (SEFLIEKRI). 2.5×10^6 activated CD8^+ T cells were injected i.v once. The short term treatment regimen is shown schematically in FIG. 1
(§1) Mice were perfused with 2% neutral-buffered formalin before removal of tumours. Tumours were incubated in 10% (2 h) and 30% sucrose overnight and embedded in OCT compound. For immunohistochemistry the following antibodies were used: anti B220 (BD Pharmingen), anti-CD8 (Ly-2, BD Pharmingen), anti-CD31 (Mec 13.3., BD Pharmingen), anti-ICAM2 (3C4, BD Pharmigen), anti-CD45 (30-F11, BD Pharmingen), anti-CD68 (FA-11, BD Biosciences), anti-calponin (rabbit monoclonal EP798Y, Abcam), anti-caldesmon (rabbit monoclonal E89, Abcam), anti-collagen I or collagen IV (rabbit polyclonal, Abcam), Ki67 (PP67, Abcam), MECA79 (American type tissue culture, ATCC) and αSMA (1A4, Sigma). For secondary detection, AMCA (7-Amino-4-methylcoumarin-3-acetic acid), Cy-3 or FITC-conjugated IgG F(ab′)2 fragments (Jackson Immuno Research) were used. The αSMA staining was amplified using the mouse on mouse (M.O.M.) kit (Vector). For lectin perfusion, mice were i.v. injected with 50 μg of FITC-labelled tomato lectin (Lycopersicon esculentum, Vector). After 10 min of circulation, mice were heart-perfused with 2% neutral-buffered formalin and tumours frozen in OCT. To evaluate vessel leakiness, 1 mg of 70 kDa Texas Red Dextran (Invitrogen) was injected i.v. and allowed to circulate for 10 min. Mice were heart-perfused with PBS followed by 2% neutral buffered formalin and tumours frozen in OCT. Apoptosis was assessed using TUNEL staining (Roche). Images were recorded on a Nikon Ti-E microscope and quantified using NIS software modules (version 3.0).
To study the complex interrelationship between tumour, tumour vessels and the immune system, the inventors' analyses focused on a transgenic mouse model which develops spontaneous tumours that mimic the clinical scenario with regard to native anatomical location, slow growth kinetics, and multistep tumour progression. In RIP1-Tag5 mice, the oncogene SV40 Large T antigen (Tag; RIP, rat insulin gene promoter) is exclusively expressed in β cells of the pancreas leading to stepwise tumour development through well-characterized stages progressing from hyperplastic islets, to the initiation of Tag expression at approximately 10 weeks, the onset of blood vessel formation in angiogenic islets (termed “angiogenic switch”) at approximately 16 weeks and then to highly vascularised solid tumours at approximately 22 weeks, followed by death at approximately 30 weeks.

pericyte cell line = experiment: Calponin/caldesmin expression in pericyte cell line in vitro; format: cell-based; conditions: direct LIGHT induction; data not shown
stromal cells = experiment: CCL21 secretion by stromal cells
RIP1-Tag5 tumours [2] = experiment: Long term treatment and survival studies in RIP1-Tag5 mice; format: in vivo, mouse
Experimental: 22 week-old RIP1-Tag5 mice were treated with bi-weekly i.v. injections of recombinant proteins as described for short term regimens for a total of 8 weeks and survival/tumour burden analysed at the set endpoint of 30 weeks. For adoptive transfer experiments, 2.5×10^6 activated TagTCR8 CD8^+ T cells were injected i.v twice (at week 4 and week 6). In adoptive transfer experiments (without LIGHT-RGR), mice received two adoptive transfers only. Chemotherapy: 22 week-old mice were treated with i.v. injections of 0.2 ng LIGHT-RGR bi-weekly over a period of 8 weeks and were simultaneously provided with […] cyclophosphamide (metronomic low dose) in drinking water throughout the experiment. The long term treatment regimen is shown schematically in FIG. 2. In addition, mice were treated with cyclophosphamide and/or LIGHT-RGR and survival monitored (death as endpoint).
For vaccination, mice were primed with one subcutaneous injection (tail base) of 50 μg recombinant Tag protein mixed with 50 μg Freund's adjuvant (Sigma). […] For combination therapies with checkpoint blockade, RIP1-Tag5 mice were treated with LIGHT-RGR (20 ng, iv, biweekly) in combination with anti-PD1 ([…].) and anti-CTLA4 ([…].) antibodies (BioXCell). In addition, mice were treated with triple combination of LIGHT-RGR/anti-PD1+anti CTL4/anti-Tag vaccine.
as §1
Cumulative survival time was calculated by the Kaplan-Meier method and analyzed by the log-rank test. Student's t test (2-tailed) was used unless indicated otherwise. A P value of less than 0.05 was considered statistically significant. Error bars indicate SD unless stated otherwise.
To study the complex interrelationship between tumour, tumour vessels and the immune system, the inventors' analyses focused on a transgenic mouse model which develops spontaneous tumours that mimic the clinical scenario with regard to native anatomical location, slow growth kinetics, and multistep tumour progression.

[3] = tested on: tumour resident macrophages; experiment: TGFβ secretion of ex vivo purified tumour resident macrophages (ELISA); format: cell-based, mouse; conditions: macrophages from treated tumours; data not shown
4T1 breast cancer = experiment: Breast tumour model, orthotopic 4T1 in Balb/c mice, tumour histology; format: in vivo, mouse
Experimental: (§2) Murine breast cancer cells (5×10^6, 4T1 from ATCC) were injected orthotopically into the mammary fat pad of Balb/c mice. […] Mice were injected with pimonidazole (hypoxia marker) and FITC-labelled lectin. After 1 h/10 min (pimonidazole/lectin, respectively) circulation, mice were perfused with 2% formalin and tumors dissected and fresh frozen in OCT compound. Tumours were analyzed by histology for vessel frequency (CD31), quality of vessel perfusion (CD31 plus lectin-FITC), caldesmon induction and frequency of intratumoral hypoxia (pimonidazole staining).
as §2, with “caldesmon (contractile pericyte marker)” for “caldesmon”

RIP1-Tag5 tumours [4] = experiment: Short term treatment of tumour-bearing RIP1-Tag5 mice, tumour histology; format: in vivo, mouse; conditions: 2 μg; regimen not stated
[5] = 0.2 ng i.v. bi-weekly for 2 weeks
[6] = 20 ng i.v. bi-weekly for 2 weeks

B1: LIGHT (protein, listed as Mus musculus)
chain: MESVVQPSVFVVDGQTDIPFRRLEQNHRRRRCGTVQVSLALVLLLGAGLATQGWFLLRLHQRLGDIVAHLPDGGKGSWEKLIQDQRSHQANPAAHLTGANASLIGIGGPLLWETRLGLAFLRGLTYHDGALVTMEPGYYYVYSKVQLSGVGCPQGLANGLPITHGLYKRTSRYPKELELLVSRRSPCGRANSSRVWWDSSFLGGVVHLEAGEEVVVRVPGNRLVRPRDGTRSYFGAFMV
RIP1-Tag5 tumours [1]; 0.2 ng, 2 week treatment
  vessel leakiness (extravasation of 70 kDa dextran): leaky phenotype
Pericyte cell line
  calponin/caldesmin induction in pericyte cells: not induced

B2: LIGHT-RGR (protein)
chain: MESVVQPSVFVVDGQTDIPFRRLEQNHRRRRCGTVQVSLALVLLLGAGLATQGWFLLRLHQRLGDIVAHLPDGGKGSWEKLIQDQRSHQANPAAHLTGANASLIGIGGPLLWETRLGLAFLRGLTYHDGALVTMEPGYYYVYSKVQLSGVGCPQGLANGLPITHGLYKRTSRYPKELELLVSRRSPCGRANSSRVWWDSSFLGGVVHLEAGEEVVVRVPGNRLVRPRDGTRSYFGAFMVGGGCRGRRSTG
RIP1-Tag5 tumours [1]; [5]
  collagen IV alignment / stromal Col IV: close vessel alignment of collagen IV; also recorded: decreased stromal Col IV
  pericyte attachment to vessels (αSMA+ pericytes): firm attachment of pericytes to vessels; also recorded: significantly decreased the protrusion of αSMA+ pericytes from the vasculature
RIP1-Tag5 tumours [1]; 0.2 ng i.v. bi-weekly for 2 weeks (four injections), RIP1-Tag5 mice
  normalization of tumour vessels (histology): normalized chaotic tumour vessels
RIP1-Tag5 tumours [1]; 0.2 ng i.v. bi-weekly for 2 weeks, CD31 vessel marker
  total vessel counts / CD31 surface area: without affecting total vessel counts; also recorded: total surface area of CD31 remained intact
RIP1-Tag5 tumours [1]; 0.2 ng i.v. bi-weekly for 2 weeks, small <30 μm, larger 150-200 μm
  tumour vessel caliber: shift from large to small caliber tumour vessels; also recorded: significant increase in small vessels
RIP1-Tag5 tumours [1]; 0.2 ng in combination with adoptive transfer of in vitro activated CD8+ T cells
  T cell infiltration, compared to either treatment on their own: significantly improves T cell infiltration
RIP1-Tag5 tumours [1]; 0.2 ng, 2 week treatment
  tumour perfusion (FITC-lectin staining of vessels): indicative of adequate perfusion; also recorded: increased tumour perfusion
  vessel leakiness (extravasation of 70 kDa dextran): less leaky phenotype; also recorded: reduced vascular leakiness
RIP1-Tag5 tumours [1]; 0.2 ng, short term
  CD8+ T cell infiltration: enhance CD8+ T cell infiltration
  ICAM-1 expression on tumour endothelial cells: increases expression of the inflammatory adhesion molecule ICAM-1
  expression of collagen I in normalized vessels: significantly down regulated
  expression of contractile markers calponin and caldesmon in αSMA-positive tumour pericytes: significant increase in expression; also recorded: significantly up regulated
  function of vessels within the tumour: improved the function of vessels within the tumour
RIP1-Tag5 tumours [1]; [6]
  formation of ectopic lymph node structures associated with HEVs (MECA79): induced the formation of ectopic lymph node structures
  tumours with HEV structures: 60-75%
RIP1-Tag5 tumours [1]; 20 ng, short term
  immune cell infiltration of intratumoural areas surrounding HEVs: heavily infiltrated with T cells and B cells
RIP1-Tag5 tumours [1]; two week, 20 ng LIGHT-RGR with anti-PD-1/anti-CTLA4 double treatment versus single antibodies
  efficacy (total tumour burden by weight): superior to single treatment
Stromal cells
  CCL21 secretion by stromal cells: stimulates stromal cells to secrete CCL21
RIP1-Tag5 tumours [2]; 0.2 ng LIGHT-RGR combined with adoptive T cell transfer
  survival of RIP1-Tag5 mice at week 30: approximately 70%
RIP1-Tag5 tumours [2]; 0.2 ng in combination with anti-Tag vaccination
  survival over vaccination alone or vaccination with LIGHT: substantially increased survival
RIP1-Tag5 tumours [2]; 0.2 ng long term in combination with adoptive transfer of anti-Tag lymphocytes
  inflammatory response at tumour site / tumour appearance: substantial inflammatory response at the tumour site and pale
RIP1-Tag5 tumours [2]; 0.2 ng plus cyclophosphamide, 8 weeks
  tumour size / tumour burden: shift from large tumours to smaller tumours
RIP1-Tag5 tumours [2]; 0.2 ng plus low dose metronomic cyclophosphamide in drinking water, 8 weeks
  apoptotic tumour cells (TUNEL), compared to each treatment alone: significant increase in apoptotic tumour cells
RIP1-Tag5 tumours [2]; 20 ng LIGHT-RGR with anti-PD-1 (250 μg) and anti-CTLA4 (75 μg) antibodies, week 23 to 45
  survival compared to controls: significantly increased survival
RIP1-Tag5 tumours [2]; 20 ng LIGHT-RGR with tumour specific (anti-Tag) vaccine
  survival at 45 weeks of age: 30%
RIP1-Tag5 tumours [2]; 20 ng LIGHT-RGR+vaccine+anti-PD-1+anti-CTLA4
  RIP1-Tag5 mice alive at 45 weeks: 70%
RIP1-Tag5 tumours [2]; 20 ng, long term
  tumour cell apoptosis (TUNEL): increase in tumour cell apoptosis
  tumour cell content (Dapi, H&E): substantial reduction of tumour cells
  tumour necrosis at 30 weeks: highly necrotic
RIP1-Tag5 tumours [2]; LIGHT-RGR in combination with cyclophosphamide from week 22
  survival compared to either treatment alone: significant increased survival
RIP1-Tag5 tumours [2]; single treatments, LIGHT-RGR 0.2 ng, treated from week 22
  survival of RIP1-Tag5 mice at week 30: approximately 30%
[3]
  TGFβ secretion by tumour macrophages: stimulates macrophages in the tumour environment to secrete TGFβ
4T1 breast cancer; 20 ng
  vessel normalization as shown for RIP1-Tag5 mice: reproduced all aspects of vessel normalization
4T1 breast cancer; 20 ng i.v. bi-weekly for 2 weeks, 4T1
  vessel normalization: induces vessel normalization
4T1 breast cancer; 20 ng, 4T1
  contractile markers in pericytes (caldesmon): induced contractile markers in pericytes
  overall vascularity (CD31+ vessels): without change in overall vascularity
  tumour hypoxia (pimonidazole): reduced tumour hypoxia; also recorded: reduces tumor hypoxia
  vessel calibers: reduced vessel calibers
  vessel perfusion (FITC-lectin): increases vessel perfusion
4T1 breast cancer; breast cancer model
  binding affinity to tumor vessels relative to RIP1-Tag5: lower binding affinity to tumor vessels
  dose required to recapitulate the vessel phenotype of RIP1-Tag5 mice treated with 0.2 ng: 20 ng
RIP1-Tag5 tumours [4]
  effect on vessels in RIP1-Tag5 mice: caused vessel death
